The values that follow come from patent US20100234274A1, “Use of Nestafin-1 in the Treatment for Diabetes” (priority 2009, published 2010).

In data set [1] the test system is db/db mice. The data set is described as follows: i.v. injection of plasmin inhibitors in db/db mice (serum nesfatin-1, food intake, body weight). Particulars: for circulating nesfatin-1: serum at 30 minutes. Type of data set: in vivo, mouse. The protocol:
Lower nesfatin-1 in “saline” than “ff db/db” (FIG. 3b) was due to blood dilution after injection. (b) Reduction in body weight after a 3-day i.v. AMCA (15 mg/day); (c) Food intake at day 3 during a 3-day i.v. AMCA (15 mg/day).
Hypothalamus in acetic acid supplemented with protease inhibitor cocktail tablets (Roche, Indianapolis, Ind.) was homogenized, sonicated and heated at 95° C. for 15 minutes. The samples were then centrifuged at 13,200 rpm at 4° C. for 30 minutes. The supernatants were finally collected as their protein contents were determined by the Bradford assay (Thermo-Fisher Sci. Rockford, Ill.). Mouse serum was freshly prepared by drawing blood through ophthalmectomy. About […] hypothalamic total proteins or 25 μL serum were analyzed with Waters Delta 600E/2487/717 HPLC system using an analytical C18 reverse phase column (4.6×250 mm/5 μm, Hambon, Zhangjiagang, Conn.). Nesfatin-1 was eluted with a linear gradient from 20%-40% solvent B (solvent A: water with 0.1% trifluoroacetic acid, solvent B: acetonitrile with 0.1% trifluoroacetic acid) for 20 minutes at the flow rate of iml/minute. The purified nesfatin-1 was used as the standard to determine the retention time and plot the standard curve. The fraction collected at the retention time was sent for the mass spectrometry analysis.
It is unknown how nesfatin-1 is cleared from circulation. The tiny amount of plasmin generation in periphery was previously reported and confirmed in our study (data not shown). AMCA and aprotinin, two inhibitors of plasmin, was i.v. injected to db/db. The reduction in food intake and body weight was seen while circulating nesfatin-1 was increased (FIG. 8). […] Therefore, peripheral nesfatin-1 was believed at least partially to be degraded by plasmin.

The test system of data set [2] is db/db mice. The data set is described as follows: Inhibitor pre-treatment before i.v. nesfatin-1 in db/db mice, blood glucose. Type of data set: in vivo, mouse. The following applies: blood glucose in 6 hours. On the procedure: GW9662, a PPAR-gamma irreversible inhibitor, was i.v. injected into the tail vein of db/db mice at the dose of 0.45 μg per gram body weight. After 30 minutes, 100 ug Nesfatin-1 was injected into the tail vein of db/db mice. Blood glucose was measured in 6 hours.
Compound C, a 5′-AMP-activated protein kinase (AMPK) specific inhibitor, was intraperitoneally injected to db/db mice at the dose of 20 mg per kg body weight. Subsequently, 100 ug Nesfatin-1 was injected into the tail vein of db/db mice. Blood glucose was measured in 6 hours.

Another data set addresses T1, recombinant nesfatin-1 (UniProt P81117).
T1 sequence: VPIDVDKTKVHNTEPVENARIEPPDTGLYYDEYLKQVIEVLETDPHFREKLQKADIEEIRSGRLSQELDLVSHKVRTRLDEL

For data set [3], the system named is rats. Particulars: injected directly into the brain of rats; cited from earlier work.
The nature of data set [4]: Clearance of i.v. nesfatin-1 from circulation. Type of data set: in vivo, mouse.
The subject of the next data set is ob/ob mice. The data set is described as follows: Blood lipid analysis after i.v. nesfatin-1 in ob/ob mice. Type of data set: in vivo, mouse. Particulars: 100 ug tail vein, 3 hours after injection. On the procedure: One hundred ug Nesfatin-1 was injected into the tail vein of ob/ob mice. Blood samples were taken 3 hours after the injection for lipid analysis.

Data set [5] concerns rats. The following applies: cited from earlier work.
The conditions of data set [6]: i.c.v. or i.p. injection; cited from earlier work.
Data set [7] deals with db/db mice. The experiment in a line: Blood glucose after i.v. nesfatin-1 in db/db mice. Type of data set: in vivo, mouse.
The next data set concerns the target plasmin (Homo sapiens, UniProt P00747). The experiment in a line: Incubation of recombinant nesfatin-1 with plasmin. Type of data set: biochemical. The protocol:
Arrows indicated the putative cleavage sites by plasmin. (b) Nesfatin-1 was completely digested by plasmin within 2 hours.
The recovery of hypothalamic nesfatin-1 in plg^−/−lepr^−/− was consistent to its normalization in food intake and body weight (FIG. 2ac). Fasted mice always had less nesfatin-1 in hypothalamus than their freely feeding counterparties (FIG. 5b). Furthermore, plasminogen deficiency provided a unique approach to study the chronic effect of elevated nesfatin-1 in hyperphagic obese animals, which was impossible for the i.c.v. or i.p. administration due to the short half-time of nesfatin-1. Consequently, agrp and npy were found reduced in plg^−/−lepr^−/−, while pomc was elevated compared with plg^+/+lepr^−/− (FIG. 6), contradicting to the previous report that i.c.v. nesfatin-1 didn't alter the expression of pomc, npy and agrp. Consistent to the present finding, the same group reported the up-regulation of pomc by i.p. nesfatin-1 in NTS recently.

Data set [8] deals with Streptozotocin-induced type-I diabetic C57BL/6J mice. The experiment in a line: Streptozotocin-induced type-I diabetic mice, blood glucose. Type of data set: in vivo. Particulars: 100 μg/mouse i.v. alone or combined with s.c. insulin (2 ng/mouse). The protocol:
(§1) Amazingly as described above, the diabetic symptoms of db/db mice were essentially eliminated in plg^−/−lepr^−/−, which couldn't be possibly explained by the anorexigenic effect of nesfatin-1.
Male C57BL/6J mice (10 weeks) were given intraperitoneal injections of Streptozotocin (STZ) in sodium citrate (pH 4.5) on two consecutive days (100 mg/kg/day). Blood glucose was measured by tail vein sampling using the glucose oxidase enzymatic test. Diabetes was defined as a morning blood glucose reading of >16 mM after STZ. When blood glucose levels exceeded 30 mM, diabetic mice were given 16 ng of porcine insulin (Wangbang, Xuzhou, Conn.) every second day to prevent weight loss while maintaining blood glucose levels within the hyperglycemic range (16-30 mM). Nesfatin-1 (100 μg/mouse) was i.v. injected either alone or combined with s.c. insulin (2 ng/mouse) to STZ-induced type-I diabetic mice.

A further data set relates to wild-type mice. The experiment in a line: Intraperitoneal glucose tolerance test (IGTT) in wild-type mice. Type of data set: in vivo, mouse. The following applies: 100 μg nesfatin-1, i.v. injection of 1.5 g/kg glucose. The protocol:
Mice of the investigated genotype (plg^+/+lepr^−/−, plg^−/−lepr^−/−, plg^+/+lepr^+/+, plg^−/−lepr^+/+) were fasted for 18 hours at 8, 16 and 24 weeks old, before blood sampling from tail veins to measure fasting blood glucose using a glucose meter (Accu-Chek, Roche). Mice serum insulin was measured at the age of 12 weeks by ELISA (ALPCO, Salem, N.H.). IGTT was performed previously. As briefly, 12-week old mice were placed in clean cages without food at 4 pm on the day prior to the experiment. […] Blood glucose was measured immediately before and at 10, 20, 30, 60, 90, 120, and 180 minutes after the injection of glucose.
as §1

The conditions of data set [9]: both directions, nonsaturable system; cited from earlier work.

Sequence of plasmin (P00747 97-810, species assumed): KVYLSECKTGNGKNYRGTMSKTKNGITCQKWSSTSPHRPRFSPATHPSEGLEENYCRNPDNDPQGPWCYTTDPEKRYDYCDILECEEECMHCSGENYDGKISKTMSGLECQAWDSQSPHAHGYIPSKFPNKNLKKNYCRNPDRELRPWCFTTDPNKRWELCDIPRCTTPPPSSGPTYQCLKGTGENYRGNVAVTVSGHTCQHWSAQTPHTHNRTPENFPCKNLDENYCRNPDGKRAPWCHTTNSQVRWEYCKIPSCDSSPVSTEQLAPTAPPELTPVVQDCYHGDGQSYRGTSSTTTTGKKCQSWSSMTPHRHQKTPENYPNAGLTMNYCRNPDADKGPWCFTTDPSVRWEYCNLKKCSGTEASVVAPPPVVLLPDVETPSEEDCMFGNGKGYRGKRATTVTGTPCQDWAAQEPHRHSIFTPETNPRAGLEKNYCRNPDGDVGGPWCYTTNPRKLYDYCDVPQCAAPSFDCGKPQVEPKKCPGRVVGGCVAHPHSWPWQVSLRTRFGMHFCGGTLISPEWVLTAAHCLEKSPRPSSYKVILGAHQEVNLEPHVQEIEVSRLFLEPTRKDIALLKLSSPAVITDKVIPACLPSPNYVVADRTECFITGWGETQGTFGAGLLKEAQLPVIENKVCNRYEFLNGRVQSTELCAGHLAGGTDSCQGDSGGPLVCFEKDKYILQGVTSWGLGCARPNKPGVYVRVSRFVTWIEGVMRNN
Sequence of plasmin (P00747 97-580 partner limits assumed, species assumed): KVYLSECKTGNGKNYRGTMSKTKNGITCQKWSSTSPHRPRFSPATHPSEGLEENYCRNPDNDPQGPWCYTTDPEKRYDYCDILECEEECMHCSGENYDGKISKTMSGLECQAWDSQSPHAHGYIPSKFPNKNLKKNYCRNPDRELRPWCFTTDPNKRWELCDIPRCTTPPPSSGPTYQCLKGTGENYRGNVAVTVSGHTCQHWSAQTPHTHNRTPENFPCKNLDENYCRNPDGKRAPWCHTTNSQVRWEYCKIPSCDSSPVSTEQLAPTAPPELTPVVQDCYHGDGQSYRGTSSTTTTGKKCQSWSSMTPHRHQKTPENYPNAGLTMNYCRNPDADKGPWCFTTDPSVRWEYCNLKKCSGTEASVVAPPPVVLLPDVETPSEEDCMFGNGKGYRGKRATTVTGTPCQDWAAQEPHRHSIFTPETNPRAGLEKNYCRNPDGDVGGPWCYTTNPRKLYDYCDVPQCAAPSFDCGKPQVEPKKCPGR

Consider `NC[C@H]1CC[C@H](C(=O)O)CC1` [AMCA, tranexamic acid], for which, in the data set on db/db mice [1], the body weight result is “reduction”, the food intake entry is “reduction” and the “circulating nesfatin-1” value is listed as “increased”.
aprotinin: in the data set with db/db mice [1], the body weight result was “reduction”, the food intake entry is reported as “reduction” and the “circulating nesfatin-1” value was “increased”.
Take `c1cc(-c2cnn3cc(-c4ccc(OCCN5CCCCC5)cc4)cnc23)ccn1` [Compound C]: in the data set on db/db mice [2] (20 mg per kg body weight intraperitoneally before 100 ug nesfatin-1), the “inhibition of the anti-diabetic effect of nesfatin-1” value is listed as “fully inhibited”.
`O=C(Nc1ccccc1)c1cc([N+](=O)[O-])ccc1Cl` [GW9662]: in the data set with db/db mice [2] (0.45 μg per gram body weight i.v., 30 minutes before 100 ug nesfatin-1), the “inhibition of the anti-diabetic effect of nesfatin-1” value is “fully inhibited”.
For plasmin, in the data set with recombinant nesfatin-1, the “degradation of recombinant nesfatin-1 on incubation with plasmin” value was “It was then incubated with plasmin and rapidly degraded as expected”; the “digestion of nesfatin-1 by plasmin (in vitro incubation)” value is “Nesfatin-1 was completely digested by plasmin within 2 hours”.

B1: NUCB2: hypothalamus-secreted protein containing 396 amino acids, precursor of nesfatin-1 (protein, UniProt P80303 25-420, looked up)
Nucleobindin-2: VPIDIDKTKVQNIHPVESAKIEPPDTGLYYDEYLKQVIDVLETDKHFREKLQKADIEEIKSGRLSKELDLVSHHVRTKLDELKRQEVGRLRMLIKAKLDSLQDIGMDHQALLKQFDHLNHLNPDKFESTDLDMLIKAATSDLEHYDKTRHEEFKKYEMMKEHERREYLKTLNEEKRKEEESKFEEMKKKHENHPKVNHPGSKDQLKEVWEETDGLDPNDFDPKTFFKLHDVNSDGFLDEQELEALFTKELEKVYDPKNEEDDMVEMEEERLRMREHVMNEVDTNKDRLVTLEEFLKATEKKEFLEPDSWETLDQQQFFTEEELKEYENIIALQENELKKKADELQKQKEELQRQHDQLEAQKLEYHQVIQQMEQKKLQQGIPPSGPAGELKFEPHI
As to B1, in the data set with rats [3], the body weight entry is recorded as “decreases body weight” and the feeding entry is on record as “promotes anorexia”.

B2: nesfatin-1: recombinant nesfatin-1 expressed and purified from genetically engineered E. coli; secreted N-terminus fragment of NUCB2 (protein)
peptide: T1 sequence
For the molecule B2, the “clearance in plg−/− versus plg+/+” value in [4] (i.v., data not shown) was “cleared much slower”. The half-life in circulation in [4] (mouse, in vivo) turned out to be 10 min. Besides, in the data set on ob/ob mice, the HDL in blood result is “unaffected”, the LDL in blood result is given as “significantly reduced”, the “total cholesterol in blood” value is on record as “significantly reduced” and the triglyceride in blood entry is on record as “significantly reduced”. In addition, in the data set with rats [5], the neuropsychological effect entry is “increasing anxiety and fear-related behaviors”. Further, in data set [6], the body weight result is on record as “reduces body weight” and the food intake result is “inhibits food intake”. Also, in the data set with db/db mice [7] (100 μg i.v., freely fed db/db), the blood glucose entry is “significantly reduced”. Also, the diabetic improvement entry in the data set on db/db mice [7] (i.c.v. injection, db/db, data not shown) is on record as “little diabetic improvement”. For the same molecule, the “duration of anti-diabetic effect” value with db/db mice [7] (i.v.) is greater than 6 h. Besides, in the data set with db/db mice [7] (i.v., FIG. 7d, e), the “dose and time dependence of anti-diabetic effect” value was “dose- and time-dependent”. Further, the “time to complete digestion by plasmin” value with plasmin (FIG. 4b) is no more than 2 h. For the same molecule, the “degradation on incubation with plasmin” value in the data set with plasmin (recombinant nesfatin-1 from E. coli) is “rapidly degraded”. For the same molecule, in data set [8], the blood glucose entry is reported as “decreased only when nesfatin-1 was injected with s.c. insulin”. Further, the “uptake of blood sugar during IGTT” value in the data set on wild-type mice is “significantly enhanced the uptake of blood sugar”. Also, the “blood brain barrier crossing” value in [9] is listed as “crosses the Blood Brain Barrier (BBB)”.
